Experimental data published in US20180155451A1 (published 2018).
Residue numbers refer to the chain shown, from its start. Names and notes keep the numbering of the source.

T1: FcγRIIa R type extracellular domain with C-terminal His tag (human, UniProt P12318 34-217)
T1 construct: extracellular domain; also called FcgRIIa R; FcgRIIaR; not shown: His tag at the C terminus
T1 sequence (looked up): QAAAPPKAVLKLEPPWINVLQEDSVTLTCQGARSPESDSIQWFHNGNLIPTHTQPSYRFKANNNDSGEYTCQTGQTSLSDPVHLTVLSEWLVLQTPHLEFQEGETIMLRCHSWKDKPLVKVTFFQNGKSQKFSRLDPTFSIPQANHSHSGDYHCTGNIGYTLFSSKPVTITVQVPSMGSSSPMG

T2: FcγRIIa H type extracellular domain with C-terminal His tag (human, UniProt P12318 34-217)
T2 construct: extracellular domain; also called FcgRIIa H; FcgRIIaH; not shown: His tag at the C terminus
T2 sequence (looked up): T1 sequence (looked up) with R134H

T3: FcγRIIb extracellular domain with C-terminal His tag (human, UniProt P31994 43-217)
T3 construct: extracellular domain; also called FcgRIIb; 2b; not shown: His tag at the C terminus
T3 sequence (looked up): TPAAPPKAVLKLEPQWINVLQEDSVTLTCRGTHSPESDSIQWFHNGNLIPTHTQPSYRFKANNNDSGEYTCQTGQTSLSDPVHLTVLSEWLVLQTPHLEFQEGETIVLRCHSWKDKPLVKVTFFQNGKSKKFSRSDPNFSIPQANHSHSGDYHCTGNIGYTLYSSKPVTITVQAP

T4: FcγRIIb extracellular domain with C-terminal His tag (human, UniProt P31994 43-217)
T4 construct: extracellular domain; Soluble receptor expressed in FreeStyle293 cells, used as analyte in Biacore; also called FcgRIIb; 2b; not shown: His tag attached to the C terminus
T4 sequence (looked up): T3 sequence (looked up)

B1: GpH7-A5/GpH7-B3 variant K334_20W/GpL16-k0 (heterodimerized antibody, He Ab) (antibody, human IgG1, kappa)
heavy 1: not shown
heavy 2: not shown
light: DIVMTQSPLSLPVTPGEPASISCQASESLVHSNRNTYLHWYLQKPGQSPQLLIYKVSNRFSGVPDRFSGSGSGTDFTLKISRVEAEDVGVYYCSQNTHVPPTFGQGTKVEIERTVAAPSVFIFPPSDEQLKSGTASVVCLLNNFYPREAKVQWKVDNALQSGNSQESVTEQDSKDSTYSLSSTLTLSKADYEKHKVYACEVTHQGLSSPVTKSFNRGEC
notes: Anti-glypican-3 IgG1 heterodimerized antibody; the alteration stands only in the GpH7-B3 chain; Positions in EU numbering; also called K334W
B2: H240-FA012/H240-FB056/L73-k0 (antibody, human IgG1, kappa)
heavy 1: QDQLVQSGAEVKKPGASVKVSCKASGFNIKDTYIQWVRQAPGQGLEWMGRIDPLRKQTKYREKFEGRVTITADTSTNTAYMELSSLRSEDTAVYYCVRSGREFDYWGQGTLVTVSSASTKGPSVFPLAPSSKSTSGGTAALGCLVKDYFPEPVTVSWNSGALTSGVHTFPAVLQSSGLYSLSSVVTVPSSSLGTKTYICNVNHKPSNTKVDKKVEPKSCDKTHTCPPCPAPEYYWGPSVFLFPPKPKDTLMISRTPEVTCVVVDVSDEEPKVKFNWYVDGVEVHNAKTKPREEQYNATYRVVSVLTVLHQDWLNGKEYKCKVSNKALPAPIEKTISKAKGQPREPQVYTLPPSRKEMTKNQVSLTCLVKGFYPSDIAVEWESNGQPENNYKTTPPVLDSDGSFFLYSKLTVDKSRWQQGNVFSCSVMHEALHNRYTQKSLSLSP
heavy 2: QDQLVQSGAEVKKPGASVKVSCKASGFNIKDTYIQWVRQAPGQGLEWMGRIDPLRKQTKYREKFEGRVTITADTSTNTAYMELSSLRSEDTAVYYCVRSGREFDYWGQGTLVTVSSASTKGPSVFPLAPSSKSTSEGTAALGCLVEDYFPEPVTVSWNSGALTSGVHTFPAVLQSSGLYSLSSVVTVPSSSLGTQTYICNVDHKPSNTKVDKKVEPKSCDKTHTCPPCPAPELLGGPSVFLFPPKPKDTLMISRTPEVTCVVVDVSHEEPEVQFNWYVDGVEVHNAETKPREEQYNSTYRVVSVLTVLHQDWLNGKEYKCKVSNDALPMPIEETISKAKGQPREPQVYTLPPSREEMTKNQVSLTCLVKGFYPSDIAVEWESNGQPENNYKTTPPVLDSDGSFFLYSKLTVDKSRWQQGNVFSCSVMHEALHNHYTQESLSLSP
light: DIQMTQSPSSLSASVGDRVTITCRASQDIHKYIAWYQQKPGQAPRLLIQYTSTLQPGVPSRFSGSGSGTDYTFTISSLQPEDIATYYCLQYEQLRTFGGGTKVEIKRTVAAPSVFIFPPSDEQLKSGTASVVCLLNNFYPREAKVQWKVDNALQSGNSQESVTEQDSKDSTYSLSSTLTLSKADYEKHKVYACEVTHQGLSSPVTKSFNRGEC
notes: Heterodimerized anti-EREG IgG1 antibody; A chain altered from H240-AK072, B chain altered from H240-BH076
B3: H240-FA024/H240-FB064/L73-k0 (antibody, human IgG1, kappa)
heavy 1: B2 heavy 1 with I198T, M357K
heavy 2: B2 heavy 2 with G137S, E146K, S191N, L192F, I198T, K213T, E287K
light: B2 light
notes: as for B2
B4: H240-FA024/H240-FB059/L73-k0 (antibody, human IgG1, kappa)
heavy 1: B2 heavy 1 with I198T, M357K
heavy 2: B2 heavy 2 with E136G, G137E, D202N
light: B2 light
notes: as for B2
B5: GpH7-A5/GpH7-B3 variant (H268D)/GpL16-k0 (antibody, human IgG1, kappa)
heavy 1: not shown
heavy 2: not shown
light: B1 light
notes: also called H268_09D; He Ab
B6: GpH7-A5/GpH7-B3 variant (H268E)/GpL16-k0 (antibody, human IgG1, kappa)
heavy 1: not shown
heavy 2: not shown
light: B1 light
notes: also called H268_10E; He Ab
B7: GpH7-A5/GpH7-B3 variant (A330M)/GpL16-k0 (antibody, human IgG1, kappa)
heavy 1: not shown
heavy 2: not shown
light: B1 light
notes: also called A330_06M; He Ab
B8: GpH7-A5/GpH7-B3 variant (K326D)/GpL16-k0 (antibody, human IgG1, kappa)
heavy 1: not shown
heavy 2: not shown
light: B1 light
notes: also called K326_09D; He Ab
B9: GpH7-A5/GpH7-B3 variant (K334E)/GpL16-k0 (antibody, human IgG1, kappa)
heavy 1: not shown
heavy 2: not shown
light: B1 light
notes: also called K334_10E; He Ab
B10: GpH7-A5/GpH7-B3 variant (K326T)/GpL16-k0 (antibody, human IgG1, kappa)
heavy 1: not shown
heavy 2: not shown
light: B1 light
notes: also called K326_14T; He Ab
B11: GpH7-A5/GpH7-B3 variant (A330F)/GpL16-k0 (antibody, human IgG1, kappa)
heavy 1: not shown
heavy 2: not shown
light: B1 light
notes: also called A330_04F; He Ab
B12: GpH7-A5/GpH7-B3 variant (K334D)/GpL16-k0 (antibody, human IgG1, kappa)
heavy 1: not shown
heavy 2: not shown
light: B1 light
notes: also called K334_09D; He Ab
B13: GpH7-A5/GpH7-B3 variant (A330P)/GpL16-k0 (antibody, human IgG1, kappa)
heavy 1: not shown
heavy 2: not shown
light: B1 light
notes: also called A330_05P; He Ab
B14: GpH7-A5/GpH7-B3 variant (S298A)/GpL16-k0 (antibody, human IgG1, kappa)
heavy 1: not shown
heavy 2: not shown
light: B1 light
notes: also called S298_02A; GpH7-A5/GpH7-B3-15-02A/GpL16-k0
B15: GpH7-A5/GpH7-B3 variant (K334I)/GpL16-k0 (antibody, human IgG1, kappa)
heavy 1: not shown
heavy 2: not shown
light: B1 light
notes: also called K334_07I; He Ab
B16: GpH7-A5/GpH7-B3 variant (H268A)/GpL16-k0 (antibody, human IgG1, kappa)
heavy 1: not shown
heavy 2: not shown
light: B1 light
notes: also called H268_02A; He Ab
B17: GpH7-A5/GpH7-B3 variant (K326I)/GpL16-k0 (antibody, human IgG1, kappa)
heavy 1: not shown
heavy 2: not shown
light: B1 light
notes: also called K326_07I; He Ab

target: T5, FcγRIIIa extracellular domain with C-terminal His tag (human, UniProt P08637 17-208); assay: SPR (Biacore); ratio of He/Con_3a (FcγRIIIa) to He/Con_2b (FcγRIIb)
T5 construct: extracellular domain; Soluble receptor expressed in FreeStyle293 cells, used as analyte in Biacore; also called FcgRIIIa; 3a; not shown: His tag attached to the C terminus
In short: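 Interaction analysis: He antibodies immobilized indirectly through captured antigen peptide (CM5 amine-coupled or SA-biotin), FcγR analytes flowed in running buffer at 25 °C, glycine-HCl pH 1.5 regeneration.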

T5 sequence (P08637 17-208): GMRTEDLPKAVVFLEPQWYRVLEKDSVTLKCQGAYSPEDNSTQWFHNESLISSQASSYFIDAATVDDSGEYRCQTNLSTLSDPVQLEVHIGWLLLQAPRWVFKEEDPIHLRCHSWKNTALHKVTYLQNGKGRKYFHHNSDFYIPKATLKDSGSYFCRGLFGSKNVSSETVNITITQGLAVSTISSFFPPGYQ

Binder | IIIa/IIb (He_3a/2b) [ratio]
B1 | 1.23

target: T6, FcγRIa extracellular domain with C-terminal His tag (human, UniProt P12314 16-292); assay: SPR (Biacore), antibody captured on chip, soluble FcgR as analyte; experiment 1
T6 construct: extracellular domain; also called FcgRI; FcgRIa; not shown: His tag at the C terminus
Experimental: (§1) Antibodies of interest were analyzed for the interaction to FcgR according to the method described in Reference Example 8.
(§2) Analysis of interaction between obj ective antibody and the FcγR was carried out using Biacore T100 (GE Healthcare), Biacore T200, Biacore A100, and Biacore 4000. HBS-EP+ (GE Healthcare) was used as the running buffer, and the measurement temperature was set to 25° C. Chips produced by immobilizing the antigen peptide by the amine coupling method to a Series S sensor Chip CM5 (GE Healthcare), chips produced by allowing preliminarily biotinylated antigen peptides to interact with and immobilize onto a Series S Sensor Chip SA (certified) (GE Healthcare), chips produced by immobilizing Protein L (ACTIGEN, BioVision) to Series S Sencor Chip CM5 (GE Healthcare), or chips produced by immobilizing Protein A/G (Thermo Scientific) to Series S Sencor Chip CM5 (GE Healthcare) were used. Antibodies of interest were captured onto these chips, and allowed to interact to each FcγR diluted with running buffer. To regenerate and repeatedly use the chip, the antibodies captured onto the chip were washed off by reacting 10 mM glycine-HCl, pH 1.5.

T6 sequence (P12314 16-292): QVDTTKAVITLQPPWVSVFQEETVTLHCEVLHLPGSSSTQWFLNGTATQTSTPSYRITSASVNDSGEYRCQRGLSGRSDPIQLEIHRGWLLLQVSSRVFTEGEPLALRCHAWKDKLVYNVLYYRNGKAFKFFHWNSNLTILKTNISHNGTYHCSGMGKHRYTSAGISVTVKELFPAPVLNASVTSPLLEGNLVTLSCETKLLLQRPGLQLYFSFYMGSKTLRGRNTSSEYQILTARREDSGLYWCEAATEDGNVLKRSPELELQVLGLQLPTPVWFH

Binder | Kd [nM]
B2 | 0.1
B3 | 0.095
B4 | 0.089

target: T1, FcγRIIa R type extracellular domain …; assay: as above
Experimental: as §1, §2

Binder | Kd [nM]
B2 | 280
B3 | 330
B4 | 290

target: T2, FcγRIIa H type extracellular domain …; assay: as above
Experimental: as §1, §2

Binder | Kd [nM]
B2 | 86
B3 | 110
B4 | 93

target: T3, FcγRIIb extracellular domain with …; assay: as above
Experimental: as §1, §2

Binder | Kd [nM]
B2 | 1400
B3 | 1900
B4 | 1600

target: T7, FcγRIIIa F type extracellular domain with C-terminal His tag (human, UniProt P08637 17-208); assay: as above
T7 construct: extracellular domain; also called FcgRIIIa F; FcgRIIIaF; not shown: His tag at the C terminus
Experimental: as §1, §2

T7 sequence (P08637 17-208): as the sequence (P08637 17-208) above

Binder | Kd [nM]
B2 | 5
B3 | 4.7
B4 | 4.4

target: T8, FcγRIIIa V type extracellular domain with C-terminal His tag (human, UniProt P08637 17-208); assay: as above
T8 construct: extracellular domain; also called FcgRIIIa V; FcgRIIIaV; not shown: His tag at the C terminus
Experimental: as §1, §2

T8 sequence (P08637 17-208 F176V): as the sequence (P08637 17-208) above, with F160V counted along it

Binder | Kd [nM]
B2 | 1.3
B3 | 1.3
B4 | 1.3

target: T9, FcgRIIIa F (human, UniProt P08637 17-208); assay: SPR (Biacore); binding of the heterodimerized antibody relative to GpH7-A5/GpH7-B3/GpL16-k0 = 100
T9 construct: extracellular domain; also called FcγRIIIa F; 3aF; not shown: His tag attached to the C terminus
T9 sequence (P08637 17-208): as the sequence (P08637 17-208) above

Binder | He/Con_3aF
B5 | 195
B6 | 184
B7 | 139
B8 | 148
B9 | 186
B10 | 140
B11 | 144
B12 | 164
B13 | 152
B14 | 151
B15 | 156
B16 | 121
B17 | 153

target: T4, FcγRIIb extracellular domain with …; assay: SPR (Biacore), antibody captured via antigen peptide, FcγR as analyte; binding amount relative to control heterodimerized antibody
Experimental: (§3) The heterodimerized antibodies He Abs in which one of the H chains was introduced with an alteration were assayed for their binding activities to each activating FcγR and inhibitory FcγR according to the method described in Example 4. […] The activating FcγRs in FIGS. 26, 27, 28, and 29 are FcγRIa, FcγRIIa (R), FcγRIIa (H), and FcγRIIIa, respectively.
(§4) Analysis of interaction between objective antibody and the FcγR was carried out using Biacore T100 (GE Healthcare). HBS-EP+ (GE Healthcare) was used as the running buffer, and the measurement temperature was set to 25° C. Chips produced by immobilizing the antigen peptide by the amine coupling method to a Series S Sencor Chip CM5 (GE Healthcare), or alternatively, chips produced by allowing preliminarily biotinylated antigen peptides to interact with and immobilize onto a Series S Sensor Chip SA (certified) (GE Healthcare) were used. Antibodies of interest were captured onto an antigen peptide-immobilized chip, and allowed to interact to each FcγR diluted with running buffer. To regenerate and repeatedly use the chip, the antibodies captured on the chip were washed off by reacting 10 mM glycine-HCl, pH 1.5.

Binder | He/Con_2b (IIb binding)
B1 | 104 relative binding, GpH7-A5/GpH7-B3/GpL16-k0 = 100

target: T5, FcγRIIIa extracellular domain with …; assay: as above
Experimental: as §3, §4

Binder | He/Con_3a (IIIa binding)
B1 | 128 relative binding, GpH7-A5/GpH7-B3/GpL16-k0 = 100
